Reference: patent publication US10919943B2, “Mutant proteins enabling agrochemical control of plant gene expression” (The Regents of the University of California, priority 2016, dated 2021)

T1: PYR1 (Arabidopsis thaliana, UniProt O49686)
T1 construct: expressed in transfected cells; host or cells: S. cerevisiae strain Y190
T1 sequence (O49686 1-191): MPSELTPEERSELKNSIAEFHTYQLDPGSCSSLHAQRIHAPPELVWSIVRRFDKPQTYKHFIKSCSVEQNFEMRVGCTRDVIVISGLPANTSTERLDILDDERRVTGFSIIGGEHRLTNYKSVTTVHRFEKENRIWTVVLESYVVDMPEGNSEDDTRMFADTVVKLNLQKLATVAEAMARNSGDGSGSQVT


What follows are molecules tested against T1, PYR1 (assay: Yeast two hybrid of pACT-HAB1 site saturation mutants with pBD-PYR1 on 10 μM ABA, β-galactosidase staining). Details: S. cerevisiae Y190, 10 μM ABA; dead = lack of detectable staining in comparison to wild type control.
Assay type: cell-based
Design: key: x: Mutations in HAB1 that disrupt HAB1 interaction with PYR1
Excerpt: To systematically define mutations in HAB1 that disrupt its binding to PYR1, we used site saturation mutagenesis to create a collection all possible single amino acid substitutions in 20 residues lining the PYR1 binding interface, and then assayed the ability of each mutant to bind PYR1 using the yeast two hybrid assay described above. We targeted the following residues for mutagenesis: R199, 5200, E201, E203, H245, G246, G247, S322, E323, T324, K381, I383, Q384, W385, Q386, R389, F391, G392, V393, and Y404. To create the collection of mutations, mutagenic “NNK” site directed mutagenesis primers were synthesized for each of the 20 positions and the primers used in QuickChange site-directed mutagenesis reactions using a previously described pACT-HAB1 template (Park et al., 2009). We note that this clone uses a HAB1 cDNA lacking its three N-terminal amino acids. The reaction products were digested with DpnI, and transformed into competent Escherichia coli DH5α cells and plasmid DNA for 96 colonies per site was isolated using Bioneer AccuPrep® Plasmid Mini Extraction Kit (Alameda, Calif.) and sequenced to identify mutants. This process identified most of the 19 desired mutations per target site; the remaining mutations were constructed directly using specific mutagenic primers. To interrogate the effects of the mutations on PYR1-HAB1 interactions, the mutant clones were individually transformed into S. cerevisiae strain Y190 containing pBD-PYR1 (Park et al., 2009). Yeast transformants were selected for the presence of plasmids on selective SD (-Leu,-Trp) plates and then spotted onto SD (-Leu,-Trp) agar plates supplemented with 10 μM ABA. After incubating the test plates at 30° C. for two days, the colonies were lysed with chloroform and stained to reveal […] expression levels. “Dead” mutants were defined by lack of detectable staining in comparison to a wild type pBD-PYR1/pACT-HAB1 control. This screening effort defined 163 mutations that disrupt the ABA-induced PYR1/HAB1 interaction (Table 2).

Mutations in HAB1 that disrupt HAB1 interaction with PYR1 | Molecule
x | W385M: HAB1 mutant (protein, UniProt Q9CAJ0 23-511, looked up, variant W385M) Protein phosphatase 2C 16: SPVEITQLKNVTDAADLLSDSENQSFCNGGTECTMEDVSELEEVGEQDLLKTLSDTRSGSSNVFDEDDVLSVVEDNSAVISEGLLVVDAGSELSLSNTAMEIDNGRVLATAIIVGESSIEQVPTAEVLIAGVNQDTNTSEVVIRLPDENSNHLVKGRSVYELDCIPLWGTVSIQGNRSEMEDAFAVSPHFLKLPIKMLMGDHEGMSPSLTHLTGHFFGVYDGHGGHKVADYCRDRLHFALAEEIERIKDELCKRNTGEGRQVQWDKVFTSCFLTVDGEIEGKIGRAVVGSSDKVLEAVASETVGSTAVVALVCSSHIVVSNCGDSRAVLFRGKEAMPLSVDHKPDREDEYARIENAGGKVIQMQGARVFGVLAMSRSIGDRYLKPYVIPEPEVTFMPRSREDECLILASDGLWDVMNNQEVCEIARRRILMWHKKNGAPPLAERGKGIDPACQAAADYLSMLALQKGSKDNISIIVIDLKAQRKFKTRT
x | W385T: HAB1 mutant (protein, UniProt Q9CAJ0 23-511, looked up, variant W385T) Protein phosphatase 2C 16: SPVEITQLKNVTDAADLLSDSENQSFCNGGTECTMEDVSELEEVGEQDLLKTLSDTRSGSSNVFDEDDVLSVVEDNSAVISEGLLVVDAGSELSLSNTAMEIDNGRVLATAIIVGESSIEQVPTAEVLIAGVNQDTNTSEVVIRLPDENSNHLVKGRSVYELDCIPLWGTVSIQGNRSEMEDAFAVSPHFLKLPIKMLMGDHEGMSPSLTHLTGHFFGVYDGHGGHKVADYCRDRLHFALAEEIERIKDELCKRNTGEGRQVQWDKVFTSCFLTVDGEIEGKIGRAVVGSSDKVLEAVASETVGSTAVVALVCSSHIVVSNCGDSRAVLFRGKEAMPLSVDHKPDREDEYARIENAGGKVIQTQGARVFGVLAMSRSIGDRYLKPYVIPEPEVTFMPRSREDECLILASDGLWDVMNNQEVCEIARRRILMWHKKNGAPPLAERGKGIDPACQAAADYLSMLALQKGSKDNISIIVIDLKAQRKFKTRT
x | W385N: HAB1 mutant (protein, UniProt Q9CAJ0 23-511, looked up, variant W385N) Protein phosphatase 2C 16: SPVEITQLKNVTDAADLLSDSENQSFCNGGTECTMEDVSELEEVGEQDLLKTLSDTRSGSSNVFDEDDVLSVVEDNSAVISEGLLVVDAGSELSLSNTAMEIDNGRVLATAIIVGESSIEQVPTAEVLIAGVNQDTNTSEVVIRLPDENSNHLVKGRSVYELDCIPLWGTVSIQGNRSEMEDAFAVSPHFLKLPIKMLMGDHEGMSPSLTHLTGHFFGVYDGHGGHKVADYCRDRLHFALAEEIERIKDELCKRNTGEGRQVQWDKVFTSCFLTVDGEIEGKIGRAVVGSSDKVLEAVASETVGSTAVVALVCSSHIVVSNCGDSRAVLFRGKEAMPLSVDHKPDREDEYARIENAGGKVIQNQGARVFGVLAMSRSIGDRYLKPYVIPEPEVTFMPRSREDECLILASDGLWDVMNNQEVCEIARRRILMWHKKNGAPPLAERGKGIDPACQAAADYLSMLALQKGSKDNISIIVIDLKAQRKFKTRT
x | W385P: HAB1 mutant (protein, UniProt Q9CAJ0 23-511, looked up, variant W385P) Protein phosphatase 2C 16: SPVEITQLKNVTDAADLLSDSENQSFCNGGTECTMEDVSELEEVGEQDLLKTLSDTRSGSSNVFDEDDVLSVVEDNSAVISEGLLVVDAGSELSLSNTAMEIDNGRVLATAIIVGESSIEQVPTAEVLIAGVNQDTNTSEVVIRLPDENSNHLVKGRSVYELDCIPLWGTVSIQGNRSEMEDAFAVSPHFLKLPIKMLMGDHEGMSPSLTHLTGHFFGVYDGHGGHKVADYCRDRLHFALAEEIERIKDELCKRNTGEGRQVQWDKVFTSCFLTVDGEIEGKIGRAVVGSSDKVLEAVASETVGSTAVVALVCSSHIVVSNCGDSRAVLFRGKEAMPLSVDHKPDREDEYARIENAGGKVIQPQGARVFGVLAMSRSIGDRYLKPYVIPEPEVTFMPRSREDECLILASDGLWDVMNNQEVCEIARRRILMWHKKNGAPPLAERGKGIDPACQAAADYLSMLALQKGSKDNISIIVIDLKAQRKFKTRT
x | W385S: HAB1 mutant (protein, UniProt Q9CAJ0 23-511, looked up, variant W385S) Protein phosphatase 2C 16: SPVEITQLKNVTDAADLLSDSENQSFCNGGTECTMEDVSELEEVGEQDLLKTLSDTRSGSSNVFDEDDVLSVVEDNSAVISEGLLVVDAGSELSLSNTAMEIDNGRVLATAIIVGESSIEQVPTAEVLIAGVNQDTNTSEVVIRLPDENSNHLVKGRSVYELDCIPLWGTVSIQGNRSEMEDAFAVSPHFLKLPIKMLMGDHEGMSPSLTHLTGHFFGVYDGHGGHKVADYCRDRLHFALAEEIERIKDELCKRNTGEGRQVQWDKVFTSCFLTVDGEIEGKIGRAVVGSSDKVLEAVASETVGSTAVVALVCSSHIVVSNCGDSRAVLFRGKEAMPLSVDHKPDREDEYARIENAGGKVIQSQGARVFGVLAMSRSIGDRYLKPYVIPEPEVTFMPRSREDECLILASDGLWDVMNNQEVCEIARRRILMWHKKNGAPPLAERGKGIDPACQAAADYLSMLALQKGSKDNISIIVIDLKAQRKFKTRT
x | W385Q: HAB1 mutant (protein, UniProt Q9CAJ0 23-511, looked up, variant W385Q) Protein phosphatase 2C 16: SPVEITQLKNVTDAADLLSDSENQSFCNGGTECTMEDVSELEEVGEQDLLKTLSDTRSGSSNVFDEDDVLSVVEDNSAVISEGLLVVDAGSELSLSNTAMEIDNGRVLATAIIVGESSIEQVPTAEVLIAGVNQDTNTSEVVIRLPDENSNHLVKGRSVYELDCIPLWGTVSIQGNRSEMEDAFAVSPHFLKLPIKMLMGDHEGMSPSLTHLTGHFFGVYDGHGGHKVADYCRDRLHFALAEEIERIKDELCKRNTGEGRQVQWDKVFTSCFLTVDGEIEGKIGRAVVGSSDKVLEAVASETVGSTAVVALVCSSHIVVSNCGDSRAVLFRGKEAMPLSVDHKPDREDEYARIENAGGKVIQQQGARVFGVLAMSRSIGDRYLKPYVIPEPEVTFMPRSREDECLILASDGLWDVMNNQEVCEIARRRILMWHKKNGAPPLAERGKGIDPACQAAADYLSMLALQKGSKDNISIIVIDLKAQRKFKTRT
x | W385R: HAB1 mutant (protein, UniProt Q9CAJ0 23-511, looked up, variant W385R) Protein phosphatase 2C 16: SPVEITQLKNVTDAADLLSDSENQSFCNGGTECTMEDVSELEEVGEQDLLKTLSDTRSGSSNVFDEDDVLSVVEDNSAVISEGLLVVDAGSELSLSNTAMEIDNGRVLATAIIVGESSIEQVPTAEVLIAGVNQDTNTSEVVIRLPDENSNHLVKGRSVYELDCIPLWGTVSIQGNRSEMEDAFAVSPHFLKLPIKMLMGDHEGMSPSLTHLTGHFFGVYDGHGGHKVADYCRDRLHFALAEEIERIKDELCKRNTGEGRQVQWDKVFTSCFLTVDGEIEGKIGRAVVGSSDKVLEAVASETVGSTAVVALVCSSHIVVSNCGDSRAVLFRGKEAMPLSVDHKPDREDEYARIENAGGKVIQRQGARVFGVLAMSRSIGDRYLKPYVIPEPEVTFMPRSREDECLILASDGLWDVMNNQEVCEIARRRILMWHKKNGAPPLAERGKGIDPACQAAADYLSMLALQKGSKDNISIIVIDLKAQRKFKTRT
x | W385V: HAB1 mutant (protein, UniProt Q9CAJ0 23-511, looked up, variant W385V) Protein phosphatase 2C 16: SPVEITQLKNVTDAADLLSDSENQSFCNGGTECTMEDVSELEEVGEQDLLKTLSDTRSGSSNVFDEDDVLSVVEDNSAVISEGLLVVDAGSELSLSNTAMEIDNGRVLATAIIVGESSIEQVPTAEVLIAGVNQDTNTSEVVIRLPDENSNHLVKGRSVYELDCIPLWGTVSIQGNRSEMEDAFAVSPHFLKLPIKMLMGDHEGMSPSLTHLTGHFFGVYDGHGGHKVADYCRDRLHFALAEEIERIKDELCKRNTGEGRQVQWDKVFTSCFLTVDGEIEGKIGRAVVGSSDKVLEAVASETVGSTAVVALVCSSHIVVSNCGDSRAVLFRGKEAMPLSVDHKPDREDEYARIENAGGKVIQVQGARVFGVLAMSRSIGDRYLKPYVIPEPEVTFMPRSREDECLILASDGLWDVMNNQEVCEIARRRILMWHKKNGAPPLAERGKGIDPACQAAADYLSMLALQKGSKDNISIIVIDLKAQRKFKTRT
